In the test the target is VEGFR-1 expressed in rat cavernous smooth muscle cells (CSMC) (rat) (UniProt P53767). Briefly: cell-based or functional assay.
Sequence of VEGFR-1 expressed in rat cavernous smooth muscle cells (CSMC) (rat) (P53767 23-1336): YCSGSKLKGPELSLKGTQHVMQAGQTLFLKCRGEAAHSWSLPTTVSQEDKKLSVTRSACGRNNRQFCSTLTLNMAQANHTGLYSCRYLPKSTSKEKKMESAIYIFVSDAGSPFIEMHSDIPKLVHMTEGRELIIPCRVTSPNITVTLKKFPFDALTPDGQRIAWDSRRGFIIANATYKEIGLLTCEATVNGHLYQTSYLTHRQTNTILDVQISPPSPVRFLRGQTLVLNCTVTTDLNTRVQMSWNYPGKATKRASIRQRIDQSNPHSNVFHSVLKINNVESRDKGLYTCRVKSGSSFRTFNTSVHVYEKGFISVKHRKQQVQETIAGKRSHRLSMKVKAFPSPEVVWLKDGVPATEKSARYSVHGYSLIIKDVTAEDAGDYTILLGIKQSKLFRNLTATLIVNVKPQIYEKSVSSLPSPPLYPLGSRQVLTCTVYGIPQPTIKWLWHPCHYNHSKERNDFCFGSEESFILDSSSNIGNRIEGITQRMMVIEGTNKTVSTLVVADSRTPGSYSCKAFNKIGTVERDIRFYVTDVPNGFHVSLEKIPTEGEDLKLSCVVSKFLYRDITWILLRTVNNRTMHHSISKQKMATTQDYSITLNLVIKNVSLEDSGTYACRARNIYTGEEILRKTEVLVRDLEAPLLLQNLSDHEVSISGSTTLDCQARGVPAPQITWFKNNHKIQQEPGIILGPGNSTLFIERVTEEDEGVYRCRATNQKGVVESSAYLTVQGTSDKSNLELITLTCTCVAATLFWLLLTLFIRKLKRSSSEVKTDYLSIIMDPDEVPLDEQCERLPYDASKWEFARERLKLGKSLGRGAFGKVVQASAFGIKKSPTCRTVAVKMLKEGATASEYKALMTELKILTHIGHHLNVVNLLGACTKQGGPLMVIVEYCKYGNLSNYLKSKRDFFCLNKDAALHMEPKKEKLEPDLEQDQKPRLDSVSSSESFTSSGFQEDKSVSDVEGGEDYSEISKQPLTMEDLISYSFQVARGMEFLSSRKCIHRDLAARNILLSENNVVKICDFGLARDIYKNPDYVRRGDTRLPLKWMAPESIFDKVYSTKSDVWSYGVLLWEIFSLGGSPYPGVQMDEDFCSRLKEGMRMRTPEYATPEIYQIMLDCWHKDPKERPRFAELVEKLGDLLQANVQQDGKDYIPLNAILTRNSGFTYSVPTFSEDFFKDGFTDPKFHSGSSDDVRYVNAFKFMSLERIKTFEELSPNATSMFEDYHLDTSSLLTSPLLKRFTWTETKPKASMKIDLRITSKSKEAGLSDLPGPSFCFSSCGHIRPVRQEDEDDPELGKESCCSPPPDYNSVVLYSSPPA

“Recombinant human VEGF165 (from UniProt P15692 27-191) (ligand)”: the migration of rat CSMC (Transwell, 4 hr); optimal VEGF concentration came to 10 ng/mL and the proliferation of rat CSMC (CellTiter-96, OD490nm, 3 days); optimal VEGF concentration was 12.5 ng/mL.

Source of the values: patent US20030096747A1.
